In patent publication US20250215412A1 (NOVOZYMES A S, published 2025):

Assays:
Assay in all cases: cell-based or functional assay
[1] = biological target: T1, Chryseobacterium sp-62563 deamidase C230N (Chryseobacterium sp-62563)
T1 sequence: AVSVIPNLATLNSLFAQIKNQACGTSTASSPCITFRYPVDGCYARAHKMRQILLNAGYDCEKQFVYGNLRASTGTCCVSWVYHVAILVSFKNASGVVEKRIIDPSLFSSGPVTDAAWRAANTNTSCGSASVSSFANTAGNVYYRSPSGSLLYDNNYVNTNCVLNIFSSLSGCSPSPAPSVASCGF

[2] = biological target: T2, Chryseobacterium sp-62563 deamidase Q126F (Chryseobacterium sp-62563)
T2 sequence: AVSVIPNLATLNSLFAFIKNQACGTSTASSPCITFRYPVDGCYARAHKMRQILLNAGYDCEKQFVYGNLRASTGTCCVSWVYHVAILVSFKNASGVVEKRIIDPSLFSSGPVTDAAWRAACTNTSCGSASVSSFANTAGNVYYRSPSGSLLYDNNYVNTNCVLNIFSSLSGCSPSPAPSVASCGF

[3] = biological target: T3, Chryseobacterium sp-62563 deamidase Q130D (Chryseobacterium sp-62563)
T3 sequence: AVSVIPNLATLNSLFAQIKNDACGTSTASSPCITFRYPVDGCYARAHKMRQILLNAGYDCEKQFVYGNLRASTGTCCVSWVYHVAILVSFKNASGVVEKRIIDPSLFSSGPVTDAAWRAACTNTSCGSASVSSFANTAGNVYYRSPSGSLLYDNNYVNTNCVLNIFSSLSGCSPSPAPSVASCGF

[4] = biological target: T4, Chryseobacterium sp-62563 deamidase Q130E (Chryseobacterium sp-62563)
T4 sequence: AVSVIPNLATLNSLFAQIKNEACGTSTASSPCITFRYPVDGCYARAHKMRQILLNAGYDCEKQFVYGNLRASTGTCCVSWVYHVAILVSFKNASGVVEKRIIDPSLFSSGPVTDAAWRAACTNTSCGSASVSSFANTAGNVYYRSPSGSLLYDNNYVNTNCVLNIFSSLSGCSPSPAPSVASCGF

[5] = biological target: T5, Chryseobacterium sp-62563 deamidase Q130K (Chryseobacterium sp-62563)
T5 sequence: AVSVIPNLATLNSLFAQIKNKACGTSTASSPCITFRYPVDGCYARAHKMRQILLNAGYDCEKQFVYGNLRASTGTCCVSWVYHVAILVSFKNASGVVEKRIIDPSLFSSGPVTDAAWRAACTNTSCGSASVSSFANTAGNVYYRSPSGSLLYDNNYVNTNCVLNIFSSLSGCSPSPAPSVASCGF

[6] = biological target: T6, Chryseobacterium sp-62563 deamidase Q130L (Chryseobacterium sp-62563)
T6 sequence: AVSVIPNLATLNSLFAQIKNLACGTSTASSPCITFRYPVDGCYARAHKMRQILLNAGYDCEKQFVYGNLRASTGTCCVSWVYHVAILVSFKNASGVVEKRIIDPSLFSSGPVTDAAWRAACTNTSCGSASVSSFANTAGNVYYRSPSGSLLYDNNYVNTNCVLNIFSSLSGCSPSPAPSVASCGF

[7] = biological target: T7, Chryseobacterium sp-62563 deamidase Q130N (Chryseobacterium sp-62563)
T7 sequence: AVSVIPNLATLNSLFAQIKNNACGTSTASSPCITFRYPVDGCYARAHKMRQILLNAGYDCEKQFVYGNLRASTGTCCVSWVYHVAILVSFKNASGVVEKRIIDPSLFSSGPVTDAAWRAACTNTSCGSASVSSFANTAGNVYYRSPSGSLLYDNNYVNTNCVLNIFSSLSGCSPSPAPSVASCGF

[8] = biological target: T8, Chryseobacterium sp-62563 deamidase Q160N (Chryseobacterium sp-62563)
T8 sequence: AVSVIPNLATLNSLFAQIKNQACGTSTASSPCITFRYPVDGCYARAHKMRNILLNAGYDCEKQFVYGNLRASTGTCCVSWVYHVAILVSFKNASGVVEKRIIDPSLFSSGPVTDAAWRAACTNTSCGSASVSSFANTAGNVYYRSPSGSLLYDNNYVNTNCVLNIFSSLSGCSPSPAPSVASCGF

[9] = biological target: T9, Chryseobacterium sp-62563 deamidase Q160W (Chryseobacterium sp-62563)
T9 sequence: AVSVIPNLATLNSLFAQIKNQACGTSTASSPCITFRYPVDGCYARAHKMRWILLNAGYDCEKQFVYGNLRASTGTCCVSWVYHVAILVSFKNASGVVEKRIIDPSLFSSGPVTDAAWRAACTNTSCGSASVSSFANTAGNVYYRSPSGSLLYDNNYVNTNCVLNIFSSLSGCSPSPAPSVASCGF

[10] = biological target: T10, Chryseobacterium sp-62563 deamidase Q172I (Chryseobacterium sp-62563)
T10 sequence: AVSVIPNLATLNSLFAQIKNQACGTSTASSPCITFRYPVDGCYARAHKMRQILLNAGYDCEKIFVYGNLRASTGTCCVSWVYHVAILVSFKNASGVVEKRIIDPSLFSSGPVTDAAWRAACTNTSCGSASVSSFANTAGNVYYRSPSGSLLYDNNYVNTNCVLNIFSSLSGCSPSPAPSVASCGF

[11] = biological target: T11, Chryseobacterium sp-62563 deamidase Q172V (Chryseobacterium sp-62563)
T11 sequence: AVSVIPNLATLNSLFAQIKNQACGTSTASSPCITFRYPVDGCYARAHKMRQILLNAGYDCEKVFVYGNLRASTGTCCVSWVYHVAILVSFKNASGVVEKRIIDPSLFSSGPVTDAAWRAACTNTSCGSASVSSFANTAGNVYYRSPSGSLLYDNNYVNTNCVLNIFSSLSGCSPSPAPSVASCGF

[12] = biological target: T12, Chryseobacterium sp-62563 deamidase polypeptide (second polypeptide, deamidase domain), wildtype (Chryseobacterium sp-62563)
T12 sequence: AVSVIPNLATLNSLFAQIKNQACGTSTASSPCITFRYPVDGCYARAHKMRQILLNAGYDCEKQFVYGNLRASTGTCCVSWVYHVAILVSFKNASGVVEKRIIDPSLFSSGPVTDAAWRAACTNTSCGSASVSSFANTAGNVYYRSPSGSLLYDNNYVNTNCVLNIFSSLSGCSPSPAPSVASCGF

Leakage activity [1]: 0%
Relative activity of maturated deamidase (% initial rate) [1]: 42
Relative activity of maturated deamidase (% initial rate) [2]: 52
Relative activity of maturated deamidase (% initial rate) [3]: > 100
Relative activity of maturated deamidase (% initial rate) [4]: 44
Relative activity of maturated deamidase (% initial rate) [5]: 92
Relative activity of maturated deamidase (% initial rate) [6]: > 100
Leakage activity [7]: 0%
Relative activity of maturated deamidase (% initial rate) [7]: 79
Relative activity of maturated deamidase (% initial rate) [8]: > 100
Leakage activity [9]: 2%
Relative activity of maturated deamidase (% initial rate) [9]: > 100
Relative activity of maturated deamidase (% initial rate) [10]: 31
Relative activity of maturated deamidase (% initial rate) [11]: 66
Leakage activity [12]: 4%
NanoDSF thermal unfolding temperature [12]: 76.4 ° C.
Relative activity of maturated deamidase (% initial rate) [12]: 52
B1: Chryseobacterium sp-62563 propeptide F99A (protein)
chain: NQDPNLVAKESNETAMKDFGKTVPVGIEKEDGKFKISFMVTAQPYEIKDSKENAAYISMIKTAVENETPIHVFLKANTNEIAKVDKATDDDIRYFKSVATKEVKEENRK
